Measured values as given in publication PMC11602143, “Human selenocysteine synthase, SEPSECS, has evolved to optimize binding of a tRNA-based substrate” (Nucleic Acids Research, 2024).

Molecular target: the molecule itself
Test: SEC-MALS; protein alone, 250 μl at 1 and 4 mg/ml on Superose 6 Increase 10/300; 20 mM Tris pH 8.0, 150 mM NaCl, 5% glycerol, 0.5 mM TCEP, 10 μM PLP; oligomeric state of the holoenzyme

B1: Human SEPSECS (O-phosphoseryl-tRNA^Sec selenium transferase), wild type (enzyme)
chain: MNRESFAAGERLVSPAYVRQGCEARRSHEHLIRLLLEKGKCPENGWDESTLELFLHELAIMDSNNFLGNCGVGEREGRVASALVARRHYRFIHGIGRSGDISAVQPKAAGSSLLNKITNSLVLDIIKLAGVHTVANCFVVPMATGMSLTLCFLTLRHKRPKAKYIIWPRIDQKSCFKSMITAGFEPVVIENVLEGDELRTDLKAVEAKVQELGPDCILCIHSTTSCFAPRVPDRLEELAVICANYDIPHIVNNAYGVQSSKCMHLIQQGARVGRIDAFVQSLDKNFMVPVGGAIIAGFNDSFIQEISKMYPGRASASPSLDVLITLLSLGSNGYKKLLKERKEMFSYLSNQIKKLSEAYNERLLHTPHNPISLAMTLKTLDEHRDKAVTQLGSMLFTRQVSGARVVPLGSMQTVSGYTFRGFMSHTNNYPCAYLNAASAIGMKMQDVDLFIKRLDRCLKAVRKERSKESDDNYDKTEDVDIEEMALKLDNVLLDTYQDASS
notes: Human SEPSECS, wild type, cloned into pET15b (pET15b-hWTSSS); no tag cleavage is described in the purification; PLP cofactor is present in the buffers; also called WT SEPSECS; human WT SEPSECS
stoichiometry N: 4

B2: Δ470 SEPSECS (human SEPSECS with Asp470 mutated to a stop codon) (domain or fragment, UniProt Q9HD40 1-469, looked up)
chain: MNRESFAAGERLVSPAYVRQGCEARRSHEHLIRLLLEKGKCPENGWDESTLELFLHELAIMDSNNFLGNCGVGEREGRVASALVARRHYRFIHGIGRSGDISAVQPKAAGSSLLNKITNSLVLDIIKLAGVHTVANCFVVPMATGMSLTLCFLTLRHKRPKAKYIIWPRIDQKSCFKSMITAGFEPVVIENVLEGDELRTDLKAVEAKVQELGPDCILCIHSTTSCFAPRVPDRLEELAVICANYDIPHIVNNAYGVQSSKCMHLIQQGARVGRIDAFVQSLDKNFMVPVGGAIIAGFNDSFIQEISKMYPGRASASPSLDVLITLLSLGSNGYKKLLKERKEMFSYLSNQIKKLSEAYNERLLHTPHNPISLAMTLKTLDEHRDKAVTQLGSMLFTRQVSGARVVPLGSMQTVSGYTFRGFMSHTNNYPCAYLNAASAIGMKMQDVDLFIKRLDRCLKAVRKERSKES
notes: Human SEPSECS truncated by a stop codon at the position of Asp470 (removes the α15–α16 loop and α16); made from pET15b-hWTSSS by site-directed mutagenesis; Same vector and purification as the wild type; also called Δ470 human SEPSECS; truncated mutant
stoichiometry N: 4
